{
  "source": "patent US20250313627A1",
  "about": "(FUSE BIOTHERAPEUTICS, published 2025)",
  "binders": {"B1": {"name": "FUSE-453 (2A11 VHH mutant-Fc fusion protein) (Fc fusion)", "chain": "QVQLQESGGGSVPAGGSLRLSCAASGSTYSANVMGWFRQAPGKEREEVASMSIRSGRTYYSDSVKGRFTISQDGSKNTLYLQLNSLKAEDTALYYCAAAYGGSRVVYNYRGQGTQVTVSS", "notes": "also called mutant 2A11; 2A11-CV; not shown: human Fc"}, "B2": {"name": "FUSE-559 (h5A1-FA9-HK1 Fc) (Fc fusion)", "chain": "EVQLLESGGGLVQPGGSLRLSCTASGYTNRLKCMGWFRQAPGKEREEIASISTGTGNTYYADSVKGRFTISRDKSRNTLYLQMNTLRAEDTAVYYCAADVRPHGTTCHYNSRGQGTQVTVSS", "notes": "VHH-Fc format; also called humanized clone 5A1-FA9-HK1; not shown: Fc of the VHH-Fc format"}, "B3": {"name": "FUSE-454 (5A1 VHH mutant-Fc fusion protein) (Fc fusion)", "chain": "QVQLQESGGGSVQAGGSLKLSCTASGYTNRLKVMGWFRQAPGKEREEIATISTGTGNTYYADSVKGRFTFSQDKVKNTVYLQMNTLKPDDTGMYYCAADVRPDGTTVHYNSGGQGTQVTVSS", "notes": "also called mutant 5A1; 5A1-CV; not shown: human Fc"}, "B4": {"name": "FUSE-488 (5A1-Ac13) (bispecific antibody, human IgG1, lambda, L234A L235A)", "heavy": "EVQLVESGGGLVQPGGSLRLSCAASGFTFSTYAMNWVRQAPGKGLEWVARIRSKYNNYATYYADSVKDRFTISRDDSKNTLYLQMNSLRAEDTAVYYCARHGNFGNSYVSWFAYWGQGTMVTVSSASTKGPSVFPLAPSSKSTSGGTAALGCLVKDYFPEPVTVSWNSGALTSGVHTFPAVLQSSGLYSLSSVVTVPSSSLGTQTYICNVNHKPSNTKVDKKVEPKSCDKTHTCPPCPAPEAAGGPSVFLFPPKPKDTLMISRTPEVTCVVVDVSHEDPEVKFNWYVDGVEVHNAKTKPREEQYNSTYRVVSVLTVLHQDWLNGKEYKCKVSNKALPAPIEKTISKAKGQPREPQVYTLPPSREEMTKNQVSLSCAVKGFYPSDIAVEWESNGQPENNYKTTPPVLDSDGSFFLVSKLTVDKSRWQQGNVFSCSVMHEALHNRFTQKSLSLSPGK", "chain": "QVQLQESGGGSVQAGGSLKLSCTASGYTNRLKCMGWFRQAPGKEREEIATISTGTGNTYYADSVKGRFTFSQDKVKNTVYLQMNTLKPDDTGMYYCAADVRPDGTTCHYNSGGQGTQVTVSSEPKSSDKTHTCPPCPAPEAAGGPSVFLFPPKPKDTLMISRTPEVTCVVVDVSHEDPEVKFNWYVDGVEVHNAKTKPREEQYNSTYRVVSVLTVLHQDWLNGKEYKCKVSNKALPAPIEKTISKAKGQPREPQVYTLPPSREEMTKNQVSLWCLVKGFYPSDIAVEWESNGQPENNYKTTPPVLDSDGSFFLYSKLTVDKSRWQQGNVFSCSVMHEALHNHYTQKSLSLSPGK", "light": "QAVVTQEPSLTVSPGGTVTLTCRSSTGAVTTSNYANWVQQKPGQAPRGLIGGTNKRAPGTPARFSGSLLGGKAALTLSGVQPEDEAEYYCALWYSNLWVFGGGTKLTVLGQPKAAPSVTLFPPSSEELQANKATLVCLISDFYPGAVTVAWKADSSPVKAGVETTTPSKQSNNKYAASSYLSLTPEQWKSHRSYSCQVTHEGSTVEKTVAPTECSGGGGSGGGGSGGGGSGGGGSQVQLQESGGGSVQAGGSLKLSCTASGYTNRLKCMGWFRQAPGKEREEIATISTGTGNTYYADSVKGRFTFSQDKVKNTVYLQMNTLKPDDTGMYYCAADVRPDGTTCHYNSGGQGTQVTVSS", "notes": "also called humanized CD3 clone 1F3.3 x ROR1 VHH 5A1; non humanized 5A1 x 1F3-3 bsAb in format Ac13"}},
  "key": {"[1]": {"target": "T1, recombinant His tagged human ROR1 (human, UniProt Q01973 30-403, limits assumed)", "T1 construct": "Analyte in the BLI assay; also called Human ROR1-His; recombinant ROR1", "T1 sequence (Q01973 30-403 limits assumed)": "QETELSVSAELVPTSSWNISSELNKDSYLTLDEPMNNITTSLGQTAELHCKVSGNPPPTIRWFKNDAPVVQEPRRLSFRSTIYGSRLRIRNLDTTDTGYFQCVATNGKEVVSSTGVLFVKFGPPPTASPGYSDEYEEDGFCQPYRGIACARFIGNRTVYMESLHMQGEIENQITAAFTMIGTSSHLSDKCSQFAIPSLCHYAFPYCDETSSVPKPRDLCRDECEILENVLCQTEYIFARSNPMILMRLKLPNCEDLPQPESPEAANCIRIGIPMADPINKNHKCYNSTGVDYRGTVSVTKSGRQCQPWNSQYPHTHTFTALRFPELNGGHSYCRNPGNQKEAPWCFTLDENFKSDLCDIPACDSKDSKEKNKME", "assay": "BLI (Octet), FUSE protein on the tip, His tagged ROR1 in solution", "procedure": "As shown in FIGS. 5A-5D, the binding affinities (KD) of TCEs for ROR1 were assessed. We examined the magnitude by which several TCEs and mutants thereof bind to recombinant ROR1. Kinetic binding graphs were generated via Bio-Layer Interferometry (BLI) using an Octet system. For each TCE, the biosensor tips were coated with FUSE proteins at 15 μg/ml and probed with either recombinant His tagged ROR1 at concentrations ranging from 100 pM to 10 μM. […] The binding affinity (KD), on rate (k-on) and off rate (k-dis), are summarized for ROR1 in FIG. 5D.\nWe further examined the impact of mutating the cysteine residues located in CDR1 and CDR3 of 2A11 VHH and 5A1 VHH."}, "[2]": {"target": "T2, human ROR1 (Receptor Tyrosine Kinase-Like Orphan Receptor 1) on the cell surface (human, UniProt Q01973 30-937)", "T2 construct": "whole, on cells; engineered into B16-F10 (high density) and LS174T (low density) cells; also called B16-F10-ROR1-H; LS174T-ROR1-L", "T2 sequence (Q01973 30-937)": "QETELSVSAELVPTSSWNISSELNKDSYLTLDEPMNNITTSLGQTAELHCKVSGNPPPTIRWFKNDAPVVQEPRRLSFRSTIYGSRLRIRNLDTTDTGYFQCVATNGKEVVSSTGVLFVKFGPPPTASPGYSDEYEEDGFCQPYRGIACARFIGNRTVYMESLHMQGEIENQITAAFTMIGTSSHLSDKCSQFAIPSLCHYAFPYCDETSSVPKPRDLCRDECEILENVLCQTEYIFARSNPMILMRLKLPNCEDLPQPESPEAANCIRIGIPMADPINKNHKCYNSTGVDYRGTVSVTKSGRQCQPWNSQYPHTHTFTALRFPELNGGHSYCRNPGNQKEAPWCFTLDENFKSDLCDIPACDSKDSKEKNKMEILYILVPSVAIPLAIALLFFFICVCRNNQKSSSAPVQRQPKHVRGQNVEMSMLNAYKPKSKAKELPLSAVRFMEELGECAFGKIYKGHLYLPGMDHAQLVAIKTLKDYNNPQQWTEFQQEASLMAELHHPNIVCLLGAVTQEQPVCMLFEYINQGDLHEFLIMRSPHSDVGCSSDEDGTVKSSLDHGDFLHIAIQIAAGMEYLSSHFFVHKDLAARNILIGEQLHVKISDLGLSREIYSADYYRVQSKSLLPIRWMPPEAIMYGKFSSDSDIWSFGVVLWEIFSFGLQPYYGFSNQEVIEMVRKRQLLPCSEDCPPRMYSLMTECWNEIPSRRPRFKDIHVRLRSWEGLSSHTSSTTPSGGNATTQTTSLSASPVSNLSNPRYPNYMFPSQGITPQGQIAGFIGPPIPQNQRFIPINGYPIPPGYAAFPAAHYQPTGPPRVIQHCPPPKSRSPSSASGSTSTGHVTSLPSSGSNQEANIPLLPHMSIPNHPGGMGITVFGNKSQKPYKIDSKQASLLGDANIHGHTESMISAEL", "assay": "flow cytometry, LS174T cells expressing human ROR1 (low density)", "procedure": "(§1) As shown in the tables below, mouse B16-F10 melanoma (Tables 9A-9F) or LS174T human colorectal adenocarcinoma (Tables 9G-9H) cells genetically engineered to express human ROR1 at high and low densities, respectively, were stained for flow cytometric analysis with 100 nM of humanized variants of the ROR1 specific VHHs, 5A1 or 2A11 in either a VHH-Fc format or the Ac13 format shown in FIG. 1. Cells were analyzed on a flow cytometer after the primary test article was fluorescently tagged with a goat anti human IgG-Fc specific PE secondary antibody. The positive control used was PE conjugated anti-human ROR1 clone 2A2. Negative controls included a PE labeled mouse IgG Ab, the secondary antibody only, the combination of a Hen Egg Lysozyme (HEL) specific antibody plus goat anti human IgG-Fc specific PE and Fluorescence Minus One (FMO). Other controls included the non-humanized version of 5A1-Fc (FUSE179), 2A11-Fc (FUSE112) and 5A1-Ac13 (FUSE488). Humanized variants were generated using computational design (FUSE489, FUSE497-498, FUSE563, FUSE569-570, and BI-HU9-VHH11-33), a yeast display library in which mutations were inserted into the Vernier zone residues of human framework indicated in GenBank accession number M99660 (FUSE524-525, FUSE589, FUSE597-598, FUSE537, FUSE661-662, BI-HU9-HK and BI-HU9-HK-1), and a second yeast display library in which mutations were inserted into the Vernier zone residues of human framework indicated in GenBank accession number AWH66715 and amino acid position 103 within CDR3 (FUSE559, FUSE590-596, BI-HU9-VH9-1, FUSE654-655 and FUSE661-662. Affinity matured variants of FUSE559 were also generated using computational design (F22158101-21; Table 9H)."}, "[3]": {"target": "T2, human ROR1 (Receptor Tyrosine …)", "assay": "flow cytometry, LS174T cells expressing human ROR1 (low density)", "procedure": "as §1", "remark": "listed apart in the source"}, "[4]": {"target": "T2, human ROR1 (Receptor Tyrosine …)", "assay": "flow cytometry, B16-F10 cells expressing human ROR1 (high density)", "procedure": "as §1"}, "[5]": {"target": "T2, human ROR1 (Receptor Tyrosine …)", "assay": "flow cytometry, B16-F10 cells expressing human ROR1 (high density)", "procedure": "as §1", "remark": "listed apart in the source"}, "[6]": {"target": "T2, human ROR1 (Receptor Tyrosine …)", "assay": "flow cytometry on B16-F10 cells engineered to express human ROR1, secondary antibody to the IgG1 Fc", "procedure": "As shown in FIG. 15 the apparent binding affinity (EC50-binding) of the ROR1 specific VHH-Fc incorporating either the non humanized VHH clone 5A1 (FUSE179; black circle), the humanized clone 5A1-FA9-HK1 (FUSE559; black square) or the humanized clone 5A1-HK1 (FUSE524; black triangle) was calculated. Shown is a non-linear x-y plot of binding to B16-F10 cell engineered to express human ROR1 relative to the concentration of test article used for staining. A Hen Egg Lysozyme (HEL)-specific antibody was used as the negative isotype control. Binding was measured via flow cytometry using a fluorescently labeled secondary antibody specific for the Fc domain of IgG1. A summary table of EC50s and maximum MFI is shown beneath under the graph."}, "[7]": {"target": "T1, recombinant His tagged human ROR1", "assay": "SPR (Biacore 8K), recombinant human ROR1 amine-coupled on a CM5 chip (4400 RU), analyte 200nM, 1:1 binding fit [table below it]", "procedure": "(§2) Protein test article binding to recombinant human ROR1 (Acro Biosystems, RO1-H522y) was detected on a BIAcore 8K (Cytiva) biosensor system using an SPR assay. Briefly, a carboxymethylated CM5 sensor chip was activated with 1:1 mixture of 0.4 M N-ethyl-N-(3-dimethylaminopropyl) carbodiimide and 0.1 M′ N-hydroxysuccinimide. Recombinant human ROR1 in 10 mM NaOAc (pH5) was then immobilized on the sensor chip by amine-coupling according to the manufacturer's instructions to yield the stable RU of 4400. Unreacted sites were blocked with 1M ethanolamine/HCl (pH 8). Control flow cells (blank) were activated and blocked in the absence of ROR1. Flow cells were routinely equilibrated with running buffer (PBS, 0.005% surfactant P20). Test article proteins used for assessment of binding to recombinant human ROR1 binding were diluted in HBS-EP running buffer and injected into the sensor chip at different concentrations. […] Data from duplicate assays were modeled for binding equilibrium and dot plots for 200 nM of protein test article was calculated. Association constant (ka), dissociation constant (kd) and binding affinity (KD=kd/ka) were generated from integrated software in the BIAcore 8K system.\n(§3) Shown are sensorgrams of surface plasmon resonance (SPR) data generated via Biacore analysis. A summary table of binding affinity (KD), on rate (k-a) and off rate (kd) is shown below FIG. 16B."}, "[8]": {"target": "T1, recombinant His tagged human ROR1", "assay": "SPR (Biacore 8K), recombinant human ROR1 amine-coupled on a CM5 chip (4400 RU), analyte 200nM, 1:1 binding fit; column 'kd (1/s)' [table below it]", "procedure": "as §2, §3"}, "[9]": {"target": "T1, recombinant His tagged human ROR1", "assay": "SPR (Biacore 8K), recombinant human ROR1 amine-coupled on a CM5 chip (4400 RU), analyte 200nM, 1:1 binding fit; column '1:1 binding ka (1/Ms)' [table below it]", "procedure": "as §2, §3"}, "[10]": {"target": "T2, human ROR1 (Receptor Tyrosine …)", "assay": "flow cytometry, B16-F10 cells expressing human ROR1 (high density)", "procedure": "as §1", "remark": "listed apart in the source"}, "[11]": {"target": "T3, human CD3 on T cells (human, UniProt P07766 23-207; P09693 23-182; P04234 22-171; P20963 22-164)", "T3 construct": "whole, on cells; also called human CD3 on Jurkat T cells; human CD3 on T cells isolated from human PBMC", "T3 sequence (P07766 23-207, chain 1 of 4)": "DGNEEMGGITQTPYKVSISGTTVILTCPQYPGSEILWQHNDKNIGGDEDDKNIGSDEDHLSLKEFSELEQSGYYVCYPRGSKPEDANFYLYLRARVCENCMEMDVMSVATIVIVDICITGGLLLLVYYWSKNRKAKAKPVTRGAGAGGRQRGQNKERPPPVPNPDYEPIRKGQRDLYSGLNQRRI", "T3 sequence (P09693 23-182, chain 2 of 4)": "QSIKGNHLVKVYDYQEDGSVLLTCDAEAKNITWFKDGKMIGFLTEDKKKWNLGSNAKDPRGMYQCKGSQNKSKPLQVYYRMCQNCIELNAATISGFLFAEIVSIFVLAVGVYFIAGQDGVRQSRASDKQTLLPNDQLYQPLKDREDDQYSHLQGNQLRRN", "T3 sequence (P04234 22-171, chain 3 of 4)": "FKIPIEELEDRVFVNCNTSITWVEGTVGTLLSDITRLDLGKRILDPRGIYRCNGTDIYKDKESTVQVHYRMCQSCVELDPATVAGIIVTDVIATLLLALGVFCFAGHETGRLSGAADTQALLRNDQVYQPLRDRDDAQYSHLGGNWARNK", "T3 sequence (P20963 22-164, chain 4 of 4)": "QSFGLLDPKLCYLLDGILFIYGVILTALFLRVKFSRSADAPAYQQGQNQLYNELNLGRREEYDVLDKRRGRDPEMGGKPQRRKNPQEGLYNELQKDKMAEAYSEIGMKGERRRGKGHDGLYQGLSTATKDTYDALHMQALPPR", "assay": "flow cytometry on CD3+ Jurkat NFAT Lucia cells, secondary antibody to the IgG1 Fc"}, "[12]": {"target": "T2, human ROR1 (Receptor Tyrosine …)", "assay": "flow cytometry on ROR1+ MDA-MB-231 cells, secondary antibody to the IgG1 Fc; table row 'Binding EC50 (nM)', the graph's axis reads 'Concentration (pM)'"}},
  "data": [
    {"binder": "B1", "values": [
      {"measurement": "fold lower affinity than FUSE-112", "setting": "[1]", "value": "> 100", "unit": "fold"}
    ]},
    {"binder": "B2", "values": [
      {"measurement": "MFI", "setting": "[2]", "value": 3120},
      {"measurement": "MFI", "setting": "[3]", "value": 24400},
      {"measurement": "MFI", "setting": "[4]", "value": 6080},
      {"measurement": "MFI", "setting": "[5]", "value": 199000},
      {"measurement": "EC50", "setting": "[6]", "value": 2.31, "unit": "nM"},
      {"measurement": "Max MFI", "setting": "[6]", "value": 7600, "unit": "MFI"},
      {"measurement": "Kd", "setting": "[7]", "value": 2.56, "unit": "nM"},
      {"measurement": "koff", "setting": "[8]", "value": 0.00077, "unit": "s⁻¹"},
      {"measurement": "kon", "setting": "[9]", "value": 301000, "unit": "M⁻¹ s⁻¹"}
    ]},
    {"binder": "B3", "values": [
      {"measurement": "fold lower affinity than the parent (printed FUSE-454, meant FUSE-179)", "setting": "[1]", "value": "> 100", "unit": "fold"}
    ]},
    {"binder": "B4", "values": [
      {"measurement": "MFI", "setting": "[10]", "value": 3910},
      {"measurement": "EC50", "setting": "[11]", "value": 10.6, "unit": "nM"},
      {"measurement": "EC50", "setting": "[12]", "value": 19.2, "unit": "nM"}
    ]}
  ]
}
